Like-named read-outs stand apart in the source and are kept apart here.
Legend:
Test in all cases: MST
[1] = target: Luminal domain of human IRE1α (inositol-requiring enzyme 1α), His-tagged (human) (UniProt O75460)
[2] = target: Luminal domain of human PERK (PKR-like endoplasmic reticulum kinase), His-tagged (human) (UniProt Q9NZJ5)
[3] = target: Luminal domain of human ATF6 (activating transcription factor 6), His-tagged (human) (UniProt P18850)
[4] = target: Human recombinant GRP78 (BiP, binding immunoglobulin protein) (human, UniProt P11021 19-654)
MST [5] = target: the molecule itself
MST [6] = target: the molecule itself; remark: listed apart in the source
MST [7] = target: the molecule itself; remark: listed apart in the source

Human recombinant GRP78 (BiP, binding immunoglobulin protein), sequence (P11021 19-654): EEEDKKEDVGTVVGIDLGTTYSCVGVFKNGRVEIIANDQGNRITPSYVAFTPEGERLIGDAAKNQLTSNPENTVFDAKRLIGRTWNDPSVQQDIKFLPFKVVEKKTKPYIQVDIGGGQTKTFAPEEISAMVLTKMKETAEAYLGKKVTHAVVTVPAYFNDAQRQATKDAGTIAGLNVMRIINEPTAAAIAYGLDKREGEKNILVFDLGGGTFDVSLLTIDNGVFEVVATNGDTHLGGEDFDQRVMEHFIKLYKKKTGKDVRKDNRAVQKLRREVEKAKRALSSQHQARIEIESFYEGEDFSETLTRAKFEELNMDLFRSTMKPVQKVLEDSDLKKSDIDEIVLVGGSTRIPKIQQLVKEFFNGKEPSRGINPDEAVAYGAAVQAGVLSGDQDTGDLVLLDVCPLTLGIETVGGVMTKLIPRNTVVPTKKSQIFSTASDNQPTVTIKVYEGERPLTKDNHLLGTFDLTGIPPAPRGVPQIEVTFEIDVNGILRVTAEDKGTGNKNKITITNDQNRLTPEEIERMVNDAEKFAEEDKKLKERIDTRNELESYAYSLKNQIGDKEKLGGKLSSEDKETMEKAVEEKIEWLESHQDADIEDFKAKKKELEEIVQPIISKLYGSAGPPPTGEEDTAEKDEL
Mesencephalic astrocyte-derived neurotrophic factor (MANF), recombinant human, sequence (P55145 25-182): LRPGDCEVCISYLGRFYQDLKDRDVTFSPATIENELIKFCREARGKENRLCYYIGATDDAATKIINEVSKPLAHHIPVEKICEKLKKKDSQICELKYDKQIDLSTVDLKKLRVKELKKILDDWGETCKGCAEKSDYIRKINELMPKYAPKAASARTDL

Molecule | Kd [1] [nM] | Kd [2] [nM] | Kd [3] [nM] | Kd [4] [nM] | also measured
C-terminal domain of human MANF (C-MANF), E.coli produced (domain or fragment) | 241 | 1400 | 1300 |  | 
MANF K128A C130S, recombinant human mutant protein (from UniProt P55145 25-182) (natural protein) | 55 |  |  |  | 
Luminal domain of human IRE1α (inositol-requiring enzyme 1α), His-tagged (domain or fragment, UniProt O75460 19-443, looked up, labelled copy: Monolith His-Tag Labeling Kit RED-tris-NTA dye on the His-tag (legends also say Alexa647-labeled through His-tag)) IFGSTSTVTLPETLLFVSTLDGSLHAVSKRTGSIKWTLKEDPVLQVPTHVEEPAFLPDPNDGSLYTLGSKNNEGLTKLPFTIPELVQASPCRSSDGILYMGKKQDIWYVIDLLTGEKQQTLSSAFADSLCPSTSLLYLGRTEYTITMYDTKTRELRWNATYFDYAASLPEDDVDYKMSHFVSNGDGLVVTVDSESGDVLWIQNYASPVVAFYVWQREGLRKVMHINVAVETLRYLTFMSGEVGRITKWKYPFPKETEAKSKLTPTLYVGKYSTSLYASPSMVHEGVAVVPRGSTLPLLEGPQTDGVTIGDKGECVITPSTDVKFDPGLKSKNKLNYLRNYWLLIGHHETPLSASTKMLERFPNNLPKHRENVIPADSEKKSFEEVINLVDQTSENAPTTVSRDVEEKPAHAPARPEAPVDSMLKD |  |  |  | 119 | Kd (MST [5]): 2.7 nM; Kd (MST [6]): 40 nM; Kd (MST [7]): 7.3 nM

Second part, led by results:

Kd [1] [nM] | Kd [2] [nM] | Kd [3] [nM] | Kd [4] [nM] | Molecule | also measured
9.5 | 7.6 | 9.8 |  | C-terminal domain of human MANF (C-MANF), chemically synthesized (domain or fragment) | 
94.7 | 384 | 347 |  | Mesencephalic astrocyte-derived neurotrophic factor (MANF), recombinant human (from UniProt P55145 25-182) (natural protein) | 
 |  |  | 14.1 | Luminal domain of human PERK (PKR-like endoplasmic reticulum kinase), His-tagged (domain or fragment, UniProt Q9NZJ5 30-514, looked up, Monolith His-Tag Labeling Kit RED-tris-NTA dye on the His-tag) AGRARGLPAPTAEAAFGLGAAAAPTSATRVPAAGAVAAAEVTVEDAEALPAAAGEQEPRGPEPDDETELRPRGRSLVIISTLDGRIAALDPENHGKKQWDLDVGSGSLVSSSLSKPEVFGNKMIIPSLDGALFQWDQDRESMETVPFTVESLLESSYKFGDDVVLVGGKSLTTYGLSAYSGKVRYICSALGCRQWDSDEMEQEEDILLLQRTQKTVRAVGPRSGNEKWNFSVGHFELRYIPDMETRAGFIESTFKPNENTEESKIISDVEEQEAAIMDIVIKVSVADWKVMAFSKKGGHLEWEYQFCTPIASAWLLKDGKVIPISLFDDTSYTSNDDVLEDEEDIVEAARGATENSVYLGMYRGQLYLQSSVRISEKFPSSPKALESVTNENAIIPLPTIKWKPLIHSPSRTPVLVGSDEFDKCLSNDKFSHEEYSNGALSILQYPYDNGYYLPYYKRERNKRSTQITVRFLDNPHYNKNIRKKD | 
 |  |  | 21 | Luminal domain of human ATF6 (activating transcription factor 6), His-tagged (domain or fragment, UniProt P18850 399-670, looked up, glycosylated (PNGase F assay); Monolith His-Tag Labeling Kit RED-tris-NTA dye on the His-tag) EQDSRRMNPSVSPANQRRHLLGFSAKEAQDTSDGIIQKNSYRYDHSVSNDKALMVLTEEPLLYIPPPPCQPLINTTESLRLNHELRGWVHRHEVERTKSRRMTNNQQKTRILQGALEQGSNSQLMAVQYTETTSSISRNSGSELQVYYASPRSYQDFFEAIRRRGDTFYVVSFRRDHLLLPATTHNKTTRPKMSIVLPAININENVINGQDYEVMMQIDCQVMDTRILHIKSSSVPPYLRDQQRNQTNTFFGSPPAATEATHVVSTIPESLQ | 

Reference: paper doi:10.1101/2020.09.22.307744 (bioRxiv, 2020)
